Test results as given in patent US20120064150A1.

Assays:
[1] = molecular target: inter-α-inhibitor (IαI) (human) (UniProt P02760)
[2] = molecular target: inter-α-inhibitor (IαI) (human) (UniProt P02760); assay: cell-based or functional assay

Sequence of UniProt P02760 (P02760 206-352): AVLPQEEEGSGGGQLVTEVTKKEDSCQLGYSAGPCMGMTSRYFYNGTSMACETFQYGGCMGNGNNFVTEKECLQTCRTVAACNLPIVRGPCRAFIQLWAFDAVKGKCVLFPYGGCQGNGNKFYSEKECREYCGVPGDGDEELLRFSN

Work on “TNF-stimulated gene 6 protein (TSG-6), recombinant (from UniProt P98066 18-277)” yielded an EC50 (read off the curve): TSG-6 concentration for half-maximal HC transfer from plasma IαI (1:1000) to Cov-HA [1] of 0.4 nM, an HC transfer to Cov-HA in the presence of 50 nM TSG-6, plasma dilution series [2] of 200 pM and a decrease in HC transfer to Cov-HA in the presence of 50 nM TSG-6, plasma dilution 1:4000 [2] of 50%. The transfer of HCs from IαI in human plasma (1:1000) to Cov-HA, detected with anti-HC antibody [2] was 16 µM.
